Source: paper doi:10.1101/2024.05.23.595592 (bioRxiv, 2024)
Substitutions are numbered along the chain they refer to.

T1: TREM2 R47H, biotinylated (human, UniProt Q9NZC2, R47H, biotin on the C-terminal BirA biotinylation sequence (enzymatic, BirA))
T1 sequence: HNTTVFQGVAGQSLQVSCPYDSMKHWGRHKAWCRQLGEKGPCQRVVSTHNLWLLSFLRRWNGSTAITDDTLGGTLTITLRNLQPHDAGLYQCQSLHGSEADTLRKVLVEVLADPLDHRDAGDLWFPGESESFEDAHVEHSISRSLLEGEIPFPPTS

T2: TREM2 R62H, biotinylated (human, UniProt Q9NZC2, R62H, biotin on the C-terminal BirA biotinylation sequence (enzymatic, BirA))
T2 sequence: T1 sequence with H29R, R44H

B1: TREM2 WT, biotinylated (receptor)
chain: T1 sequence with H29R
modifications: biotin on the C-terminal BirA biotinylation sequence (enzymatic, BirA)
B2: Human IL-34 (19-241) (ligand)
chain: LGNEPLEMWPLTQNEECTVTGFLRDKLQYRSRLQYMKHYFPINYKISVPYEGVFRIANVTRLQRAQVSERELRYLWVLVSLSATESVQDVLLEGHPSWKYLQEVETLLLNVQQGLTDVEVSPKVESVLSLLNAPGPNLKLVRPKALLDNCFRVMELLYCSCCKQSSVLNWQDCEVPSPQSCSPEPSLQYAATQLYPPPPWSPSSPPHSTGSVRPVRAQGEGLL

Assays:
Test in all cases: BLI
[1] = biological target: oligomeric amyloid beta 42 (UniProt P05067)
[2] = biological target: B2
[3] = biological target: T1, TREM2 R47H, biotinylated
[4] = biological target: T2, TREM2 R62H, biotinylated

| Kd [1] | Kd [2] | fold decrease in KD (affinity) against TREM2 WT [3] | fold decrease in KD (affinity) against TREM2 WT [4] | Binder |
| --- | --- | --- | --- | --- |
| 42.5 nM | 16.5 nM | – | – | B1 |
| – | – | ~4 fold | ~4 fold | B2 |
